Measurements as given in PMC8740826 (Protein Science : A Publication of the Protein Society, 2021).
Where two headings read alike, the source gives them in different places.

B1: glucose isomerase from Streptomyces rubiginosus (enzyme)
chain: not shown
B2: β-amylase from sweet potato (enzyme)
chain: APIPGVMPIGNYVSLYVMLPLGVVNADNVFPDKEKVEDELKQVKAGGCDGVMVDVWWGIIEAKGPKQYDWSAYRELFQLVKKCGLKIQAIMSFHQCGGNVGDAVFIPIPQWILQIGDKNPDIFYTNRAGNRNQEYLSLGVDNQRLFQGRTALEMYRDFMESFRDNMADFLKAGDIVDIEVGCGAAGELRYPSYPETQGWVFPGIGEFQCYDKYMVADWKEAVKQAGNADWEMPGKGAGTYNDTPDKTEFFRPNGTYKTDMGKFFLTWYSNKLIIHGDQVLEEANKVFVGLRVNIAAKVSGIHWWYNHVSHAAELTAGFYNVAGRDGYRPIARMLARHHATLNFTCLEMRDSEQPAEAKSAPQELVQQVLSSGWKEYIDVAGENALPRYDATAYNQMLLNVRPNGVNLNGPPKLKMSGLTYLRLSDDLLQTDNFELFKKFVKKMHADLDPSPNAISPAVLERSNSAITIDELMEATKGSRPFPWYDVTDMPVDGSNPFD

Tests used:
SEC-SAXS [1] = target: the molecule itself; experiment: SEC-SAXS
SEC-SAXS [2] = target: the molecule itself; experiment: SEC-SAXS; remark: listed apart in the source

Protein | stoichiometry N (SEC-SAXS [1]) | stoichiometry N (SEC-SAXS [2])
B1 | 4 | 
B2 |  | 4
